B1: Gal4 DBD-HIV-1 p6 (wild type) [HIV-1 (pNL4-3)] / Gal4 AD-ALIX (868 amino acid-long) [not stated] (parent complex)
chain 1: LQSRPEPTAPPEESFRFGEETTTPSQKQEPIDKELYPLTSLRSLFGSDPSSQ
chain 2: MATFISVQLKKTSEVDLAKPLVKFIQQTYPSGGEEQAQYCRAAEELSKLRRAAVGRPLDKHEGALETLLRYYDQICSIEPKFPFSENQICLTFTWKDAFDKGSLFGGSVKLALASLGYEKSCVLFNCAALASQIAAEQNLDNDEGLKIAAKHYQFASGAFLHIKETVLSALSREPTVDISPDTVGTLSLIMLAQAQEVFFLKATRDKMKDAIIAKLANQAADYFGDAFKQCQYKDTLPKEVFPVLAAKHCIMQANAEYHQSILAKQQKKFGEEIARLQHAAELIKTVASRYDEYVNVKDFSDKINRALAAAKKDNDFIYHDRVPDLKDLDPIGKATLVKSTPVNVPISQKFTDLFEKMVPVSVQQSLAAYNQRKADLVNRSIAQMREATTLANGVLASLNLPAAIEDVSGDTVPQSILTKSRSVIEQGGIQTVDQLIKELPELLQRNREILDESLRLLDEEEATDNDLRAKFKERWQRTPSNELYKPLRAEGTNFRTVLDKAVQADGQVKECYQSHRDTIVLLCKPEPELNAAIPSANPAKTMQGSEVVNVLKSLLSNLDEVKKEREGLENDLKSVNFDMTSKFLTALAQDGVINEEALSVTELDRVYGGLTTKVQESLKKQEGLLKNIQVSHQEFSKMKQSNNEANLREEVLKNLATAYDNFVELVANLKEGTKFYNELTEILVRFQNKCSDIVFARKTERDELLKDLQQSIAREPSAPSIPTPAYQSSPAGGHAPTPPTPAPRTMPPTKPQPPARPPPPVLPANRAPSATAPSPVGAGTAAPAPSQTPGSAPPPQAQGPPYPTYPGYPGYCQMPMPMGYNPYAYGQYNMPYPPVYHQSPGQAPYPGPQQPSYPFPQPPQQSYYPQQ

Variants of: B1
Experiment: yeast two-hybrid, liquid β-galactosidase assay; yeast AH109, 30°C, SD/-Leu/-Trp selection medium; triplicate; parent: 1; read off a plot
Variant chain 1 P37A has a ratio to parent of ~0.3. Variant chain 1 G46A has a ratio to parent of ~0.95. chain 1 L41A gave a ratio to parent of ~0.15. chain 1 S43A was tested, and the ratio to parent was ~0.8. Variant chain 1 L44A has a ratio to parent of ~0.6. Work on chain 1 K33A yielded a ratio to parent of ~1. For chain 1 I31A, the ratio to parent was ~0.95. chain 1 E34A showed a ratio to parent of ~0.35. For chain 1 F45A, the ratio to parent was ~1. With chain 1 D32A the ratio to parent was ~0.86. In the case of chain 1 T39A, the ratio to parent is reported as ~1.1. With chain 1 R42A the ratio to parent was ~0.25. Variant chain 1 L35A has a ratio to parent of ~0.2. Variant chain 1 S40A has a ratio to parent of ~1.
